The text below walks through data of publication doi:10.1101/764241v3.

Substrate in the series: O=c1ccn([C@@H]2O[C@H](COP(=O)(O)OP(=O)(O)O[C@H]3O[C@H](CO)[C@H](O)[C@H](O)[C@H]3O)[C@@H](O)[C@H]2O)c(=O)[nH]1
Put plainly: [3H]Gal transfer, Sep-Pak C18 scintillation counting. Particulars: donor, maltose-pNP acceptor, 2 mM MnCl2, pH 7.0, 37°C. The series is classed as biochemical, Globisporangium ultimum.

B1: PuGat1 (Globisporangium ultimum DAOM BR144) (protein)
chain: MTVGTRRAAYATLITSDAYVMGVEALVYSLFKARVAFPLVVLHSSQVTQPTVAKLTRFCAPFQSSTWRISFRSVPDIGIPDEVTDRSTVHVPGWVNSGYTKLHIFAMDDFEQIVYIDADAIVLQNVDELFDRSTSFAAAPDVFPPDRFNAGVLVIRPNKQLFADLLAKAKELKSYDGGDTGFLNAFFPKWFESDAASRLPFGYNAQRTMYWLVNGKNPGYWNAVQPLKILHYSSNPKPWEDPSRKGDLEILWWQMYTESRCMSFLG
For the protein B1, the Km is 15 µM.
